According to patent publication US20030195154A1:

Biological target: soluble human myeloproliferative leukemia (MPL) receptor (human) (UniProt P40238)
Assay: BIAcore competition: test protein preincubated with 5 nM MPL receptor, passed over Fc-TMP on protein G chip
Parameters: unit not given here

Chain of UniProt P40238 (P40238 26-491 limits assumed): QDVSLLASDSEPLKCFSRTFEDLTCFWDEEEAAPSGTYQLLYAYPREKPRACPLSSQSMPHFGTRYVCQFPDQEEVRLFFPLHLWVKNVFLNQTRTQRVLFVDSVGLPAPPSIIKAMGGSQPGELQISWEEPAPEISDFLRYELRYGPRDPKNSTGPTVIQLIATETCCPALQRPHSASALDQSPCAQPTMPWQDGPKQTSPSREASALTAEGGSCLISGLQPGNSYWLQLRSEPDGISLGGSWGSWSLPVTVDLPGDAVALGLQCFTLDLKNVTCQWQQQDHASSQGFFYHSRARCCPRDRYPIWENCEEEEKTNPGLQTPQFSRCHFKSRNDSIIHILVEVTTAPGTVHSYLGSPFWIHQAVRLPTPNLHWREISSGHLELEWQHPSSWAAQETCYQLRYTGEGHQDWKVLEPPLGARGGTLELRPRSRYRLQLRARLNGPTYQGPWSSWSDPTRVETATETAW

**Q.** For “TMP sequence fused to the carboxy-terminus of human immunoglobulin Fc (Fc-TMP) (Fc fusion)”, which affinity is on record?
**A.** Its affinity is 3.28 to 5.37.
